The text below walks through data of article PMC11512355.

The experiment has as its target recombinant porcine astrovirus 4 (PoAstV4) capsid spike protein (porcine astrovirus 4). As to the kind of experiment: SEC; Superdex 200 16/600 column in TBS pH 8.0 (10 mM Tris-HCl, 150 mM NaCl), compared with BioRad gel filtration standards. For orientation: SEC sorts molecules by how far they enter the pores of the column.

Usually stoichiometry N stands for a count of units in the complex or per binding partner. For the substance “recombinant porcine astrovirus 4 (PoAstV4) capsid spike protein (domain or fragment)”, the stoichiometry N stood at 2.
